Residue numbers refer to the chain shown, from its start.
Columns and labels:
Assay in all cases: SPR
tCid1 mutant 3 = target: T1, tCid1 mutant 3 (Schizosaccharomyces pombe, UniProt O13833 33-405, R277A;K282A)
T1 sequence: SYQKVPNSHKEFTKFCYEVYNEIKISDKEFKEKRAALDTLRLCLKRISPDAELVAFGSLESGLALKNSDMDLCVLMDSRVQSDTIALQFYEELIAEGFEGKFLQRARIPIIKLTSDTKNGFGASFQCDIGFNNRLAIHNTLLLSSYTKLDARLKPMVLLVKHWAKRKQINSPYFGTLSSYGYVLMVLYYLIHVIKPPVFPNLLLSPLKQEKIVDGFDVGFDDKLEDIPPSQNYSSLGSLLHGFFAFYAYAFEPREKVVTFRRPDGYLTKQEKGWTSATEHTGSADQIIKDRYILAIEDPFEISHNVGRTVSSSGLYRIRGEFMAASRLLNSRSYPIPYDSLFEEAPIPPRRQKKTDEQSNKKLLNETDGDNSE

tCid1 (wild type) = target: T2, tCid1 (wild type) (Schizosaccharomyces pombe, UniProt O13833 33-405)
T2 sequence: T1 sequence with A245R, A250K

tCid1 mutant 2 = target: T3, tCid1 mutant 2 (Schizosaccharomyces pombe, UniProt O13833 33-405, K321A;R323A)
T3 sequence: T1 sequence with A245R, A250K, K289A, R291A

tCid1 mutant 1 = target: T4, tCid1 mutant 1 (Schizosaccharomyces pombe, UniProt O13833 33-405, K133A;R137A)
T4 sequence: T1 sequence with K101A, R105A, A245R, A250K

GAUUUGACGUUGGUUUUGACG (ssRNA) [21 nt SPR RNA]
Kd (tCid1 mutant 3): ~410 nM | Kd (tCid1 (wild type)): ~100 nM | Kd (tCid1 mutant 2): ~450 nM | Kd (tCid1 mutant 1): ~200 nM
